Reference: patent US20160222458A1 (AGENCY FOR SCIENCE TECHNOLOGY AND RESEARCH, published 2016)

Target: T1, Aurora kinase A (AURKA) (UniProt O14965 1-403)
T1 construct: also called AURKA-A; STK6
T1 sequence (looked up): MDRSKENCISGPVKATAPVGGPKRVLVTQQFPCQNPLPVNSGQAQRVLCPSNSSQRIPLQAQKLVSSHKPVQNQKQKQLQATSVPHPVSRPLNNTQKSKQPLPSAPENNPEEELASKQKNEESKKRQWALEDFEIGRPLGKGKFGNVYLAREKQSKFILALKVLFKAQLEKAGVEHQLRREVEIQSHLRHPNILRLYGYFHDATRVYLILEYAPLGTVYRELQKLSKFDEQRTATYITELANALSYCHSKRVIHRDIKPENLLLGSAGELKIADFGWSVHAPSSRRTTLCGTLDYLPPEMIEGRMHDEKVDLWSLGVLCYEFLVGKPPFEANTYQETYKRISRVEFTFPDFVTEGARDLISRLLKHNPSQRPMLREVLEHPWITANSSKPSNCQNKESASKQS
Assay: co-immunoprecipitation from MDA-MB-436 lysate with anti-PRR11 antibody on CNBr sepharose, Western blot
Text: Pelleted cells were lysed using lysis buffer (commercial Bio-Rad) and estimated proteins (Bio-Rad protein assay) and loaded equal amount of protein and separated by SDS-PAGE [28-30]. After transfer, the membranes were probed with commercial rabbit polyclonal antibodies of Actin, C6orf173, AURKA, MELK and PRR11 (Cell sciences, Sigma Aldrich). Commercial mouse monoclonal antibody available for BRRN1 was obtained from Cell Signalling. Commercial rabbit polyclonal antibody of E2F1 obtained from Thermo Scientific. B-Actin (cell signalling) was used as internal control to relatively compare the expression levels of 6-TAGs genes. Secondary antibodies (anti-rabbit and anti-mouse IgG horseradish peroxidase-conjugated) were purchased from GE Healthcare Bio-Sciences AB. Proteins were visualized using an enhanced chemiluminescence (ECL) reagent kit (GE Healthcare Bio-Sciences AB). Densitometry analysis of Western Blot images was done using ImageJ open source software.
For the immunoprecipiation 5 ug of the antibodies (rabbit anti-PRR11 and mouse anti-BRRN1) were coupled to the CN-Br sepharose 4 Fast Flow according manufacturer protocol (GE Healthcare Bio-Sciences AB) and such supports were used to capture the corresponding proteins from the NP40 cell lysates (usually 1×10^7 MDA-MB-436 cells were used for one probe). […]

binding result: no binding
B1: Proline rich 11 (PRR11/FLJ11029) (other, UniProt Q96HE9 1-360, looked up)
chain: MPKFKQRRRKLKAKAERLFKKKEASHFQSKLITPPPPPPSPERVGISSIDISQSRSWLTSSWNFNFPNIRDAIKLWTNRVWSIYSWCQNCITQSLEVLKDTIFPSRICHRELYSVKQQFCILESKLCKLQEALKTISESSSCPSCGQTCHMSGKLTNVPACVLITPGDSKAVLPPTLPQPASHFPPPPPPPPLPPPPPPLAPVLLRKPSLAKALQAGPLKKDGPMQITVKDLLTVKLKKTQSLDEKRKLIPSPKARNPLVTVSDLQHVTLKPNSKVLSTRVTNVLITPGKSQMDLRKLLRKVDVERSPGGTPLTNKENMETGTGLTPVMTQALRRKFQLAHPRSPTPTLPLSTSSFDEQN
notes: also called endogenous PRR11
